In publication PMC10974264, “The Evolution and Application of a Novel DNA Aptamer Targeting Bone Morphogenetic Protein 2 for Bone Regeneration”:

How the values were obtained:
[1] = target: T1, rhBMP-2 (His-tagged, refolded, E. coli-expressed) (human, UniProt P12643 283-396); experiment: ELONA; immobilized rhBMP-2, 100 ng/well; EMSA: 20 mM HEPES pH 7.4, 150 mM NaCl, 2 mM MgCl2, 2 mM CaCl2, 2 mM KCl, 37 C 1 h, 12% native PAGE at 4 C; ELONA: His-rhBMP-2 on HisSorb plate, biotinylated DNA 1 h at 37 C, PBST washes; conditions: protein: recombinant, tags: His tag (pET-15b NdeI/BamHI), chain copies: 2, label: biotin (ELONA), none in EMSA
T1 sequence: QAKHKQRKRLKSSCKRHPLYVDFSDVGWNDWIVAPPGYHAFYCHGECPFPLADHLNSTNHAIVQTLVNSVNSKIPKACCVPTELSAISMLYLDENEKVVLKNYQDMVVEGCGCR

[2] = target: T1, rhBMP-2 (His-tagged, refolded, E. …); experiment: ELISA-like; fiber of 500 nM BA1 and 10% type I collagen (0.3 mg/mL); EMSA: 20 mM HEPES pH 7.4, 150 mM NaCl, 2 mM MgCl2, 2 mM CaCl2, 2 mM KCl, 37 C 1 h, 12% native PAGE at 4 C; ELONA: His-rhBMP-2 on HisSorb plate, biotinylated DNA 1 h at 37 C, PBST washes; conditions: protein: recombinant; tags: His tag (pET-15b NdeI/BamHI); chain copies: 2; label: biotin

B1: BA1 (ssDNA)
DNA: CGTACGGTCGACGCTAGCAAAACAAAAAAAAATAAAAAAAAAAAGACTAAAGACACGTGGAGCTCGGATCC
For B1, the Kd ([1]; single strand, predicted hairpin-like) was 0.00695 ± 0.00053 µM.

B2: BA1 in collagen fiber (ssDNA)
DNA: CGTACGGTCGACGCTAGCAAAACAAAAAAAAATAAAAAAAAAAAGACTAAAGACACGTGGAGCTCGGATCC
Work on B2 yielded a Kd [2] of about 0.0035 µM.

B3: BA2 (ssDNA)
DNA: CGTACGGTCGACGCTAGCAAAAAAAAATCTAAAAACAAGAAAAGAAAAACAAACACGTGGAGCTCGGATCC
B3 showed a Kd [1] of 0.0203 ± 0.00473 µM.

B4: BNA2 (ssDNA)
DNA: CGTACGGTCGACGCTAGCATCAGCTCTCTGGGCTGAGTGGGTGGTGTGGCACGCACGTGGAGCTCGGATCC
B4 showed a Kd [1] of 0.0223 ± 0.00197 µM.
